{
  "source": "patent US20220010021A1",
  "binders": {"B1": {"name": "Ab0370 (antibody, IgG4, V domains shown)", "VH": "QVTLKESGPVLVKPTETLTLTCTVSGFSLNNARVGVSWIRQPPGKALEWLAWIFSNDEKSYSTSLKSRLTISKDTSKSQVVLTMTNMDPVDTATYYCARSVVTGGYYYEGMDVWGQGTTVTVSS", "VL": "SYVLTQPPSVSVAPGQTARITCGGNNIGSESVHWYQQKPGQAPVLVVDDSDRPSGIPERFSGSNSGNTATLTISRVEAGDEADYYCQVHDGNSDHVVFGGGTKLTVLG"}},
  "note": "Ends that are not written are not given here.",
  "data": [
    {"target": "human GLP-1 receptor (human) (UniProt P43220)", "sequence (P43220 24-463)": "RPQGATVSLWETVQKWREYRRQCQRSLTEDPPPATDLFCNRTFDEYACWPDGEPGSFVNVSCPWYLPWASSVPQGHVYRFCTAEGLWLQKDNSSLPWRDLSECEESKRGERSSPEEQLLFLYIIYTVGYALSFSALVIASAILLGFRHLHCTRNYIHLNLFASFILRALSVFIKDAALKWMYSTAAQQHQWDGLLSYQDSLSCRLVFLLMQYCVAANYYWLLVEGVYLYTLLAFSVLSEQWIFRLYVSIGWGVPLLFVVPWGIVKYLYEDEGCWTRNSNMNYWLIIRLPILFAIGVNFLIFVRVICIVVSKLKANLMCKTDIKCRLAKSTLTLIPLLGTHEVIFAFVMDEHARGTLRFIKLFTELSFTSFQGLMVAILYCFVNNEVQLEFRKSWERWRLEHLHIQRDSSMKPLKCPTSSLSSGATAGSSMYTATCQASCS", "test": "cell-based or functional assay", "units": {"HTRF cAMP EC50": "pM"}, "values": [
      {"binder": "GHGEGTFTSDLSIQLEEEAVRLFIEWLLATGPSSGAPPPS-NH2", "note": "[P020]", "HTRF cAMP EC50": 206},
      {"binder": "GHGEGTFTSDLSIQLEEEAVRLFIEWLLAGGPSSGAPPPS-NH2", "note": "[P019]", "HTRF cAMP EC50": 27.6},
      {"binder": "GHGEGTFTSDLSKQLEEEAVRLFIEWLKAGGPKKIRYS-NH2", "note": "[P013]", "HTRF cAMP EC50": 9.9},
      {"binder": "GHGEGTFTSDLSKQLEEEAVRLFIEWLKAGGPSSGAPPPS-NH2", "note": "[P017]", "HTRF cAMP EC50": 8.5},
      {"binder": "GHGEGTFTSDKSKQLEEEAVRLFIEWLKAGGPKKIRYS-NH2", "note": "[P014]", "HTRF cAMP EC50": 10.5},
      {"binder": "HGEGTFTSDLSKQLEEEAVQLFIEWLLATGPSSGAPPPS-NH2", "note": "[P010]", "HTRF cAMP EC50": 3.5},
      {"binder": "GHGEGTFTSDKSKQLEEEAVRLFIEWLKAGGPSSGAPPPS-NH2", "note": "[P021]", "HTRF cAMP EC50": 27.6},
      {"binder": "HGEGTFTSDLSKQLEEERVQLFIEWLKATGPSSGAPPPS-NH2", "note": "[P008]", "HTRF cAMP EC50": 23.2}
    ]},
    {"target": "human GIP receptor (human) (UniProt P48546)", "sequence (P48546 22-466)": "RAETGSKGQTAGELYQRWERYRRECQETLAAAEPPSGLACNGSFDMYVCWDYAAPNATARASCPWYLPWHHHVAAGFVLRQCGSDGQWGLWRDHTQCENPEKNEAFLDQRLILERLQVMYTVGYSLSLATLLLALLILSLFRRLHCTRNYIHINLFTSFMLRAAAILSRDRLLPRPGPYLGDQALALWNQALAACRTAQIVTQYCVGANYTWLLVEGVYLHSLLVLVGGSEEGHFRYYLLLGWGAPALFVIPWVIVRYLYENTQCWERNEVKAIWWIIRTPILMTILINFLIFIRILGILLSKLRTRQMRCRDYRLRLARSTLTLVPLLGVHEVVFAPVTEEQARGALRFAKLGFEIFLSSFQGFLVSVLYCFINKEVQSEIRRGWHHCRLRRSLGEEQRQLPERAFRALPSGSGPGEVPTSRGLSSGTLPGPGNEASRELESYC", "test": "cell-based or functional assay", "units": {"HTRF cAMP EC50": "pM"}, "values": [
      {"binder": "GHGEGTFTSDLSKQLEEEAVRLFIEWLKAGGPKKIRYS-NH2", "note": "[P013]", "HTRF cAMP EC50": "> 10000"},
      {"binder": "GHGEGTFTSDLSKQLEEEAVRLFIEWLKAGGPSSGAPPPS-NH2", "note": "[P017]", "HTRF cAMP EC50": "> 10000"},
      {"binder": "GHGEGTFTSDKSKQLEEEAVRLFIEWLKAGGPKKIRYS-NH2", "note": "[P014]", "HTRF cAMP EC50": "> 10000"},
      {"binder": "GHGEGTFTSDKSKQLEEEAVRLFIEWLKAGGPSSGAPPPS-NH2", "note": "[P021]", "HTRF cAMP EC50": "> 10000"},
      {"binder": "HGEGTFTSDLSKQLEEERVQLFIEWLKATGPSSGAPPPS-NH2", "note": "[P008]", "HTRF cAMP EC50": "> 10000"}
    ]},
    {"target": "human glucagon receptor (human) (UniProt P47871)", "sequence (P47871 26-477)": "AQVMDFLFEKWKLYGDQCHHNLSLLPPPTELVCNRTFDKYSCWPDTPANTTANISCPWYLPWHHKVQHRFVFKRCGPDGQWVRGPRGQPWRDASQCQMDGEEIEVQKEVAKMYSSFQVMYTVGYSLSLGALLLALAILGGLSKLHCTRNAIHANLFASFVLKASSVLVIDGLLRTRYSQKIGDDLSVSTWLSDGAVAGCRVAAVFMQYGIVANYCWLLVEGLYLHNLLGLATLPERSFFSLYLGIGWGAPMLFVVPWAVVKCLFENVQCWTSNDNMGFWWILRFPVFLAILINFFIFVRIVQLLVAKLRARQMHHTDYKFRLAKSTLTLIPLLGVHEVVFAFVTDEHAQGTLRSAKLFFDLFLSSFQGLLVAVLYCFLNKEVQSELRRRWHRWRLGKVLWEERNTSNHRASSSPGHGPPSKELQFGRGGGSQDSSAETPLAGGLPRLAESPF", "test": "cell-based or functional assay", "units": {"HTRF cAMP EC50": "pM"}, "values": [
      {"binder": "GHGEGTFTSDLSKQLEEEAVRLFIEWLKAGGPKKIRYS-NH2", "note": "[P013]", "HTRF cAMP EC50": "> 10000"},
      {"binder": "GHGEGTFTSDLSKQLEEEAVRLFIEWLKAGGPSSGAPPPS-NH2", "note": "[P017]", "HTRF cAMP EC50": "> 10000"},
      {"binder": "GHGEGTFTSDKSKQLEEEAVRLFIEWLKAGGPKKIRYS-NH2", "note": "[P014]", "HTRF cAMP EC50": 5400},
      {"binder": "GHGEGTFTSDKSKQLEEEAVRLFIEWLKAGGPSSGAPPPS-NH2", "note": "[P021]", "HTRF cAMP EC50": "> 10000"},
      {"binder": "HGEGTFTSDLSKQLEEERVQLFIEWLKATGPSSGAPPPS-NH2", "note": "[P008]", "HTRF cAMP EC50": "> 10000"}
    ]},
    {"target": "human FGFR1c + KLB receptor complex on HEK293 iLite FGF21 reporter cells (human) (UniProt P11362)", "sequence (P11362 22-822, chain 1 of 2)": "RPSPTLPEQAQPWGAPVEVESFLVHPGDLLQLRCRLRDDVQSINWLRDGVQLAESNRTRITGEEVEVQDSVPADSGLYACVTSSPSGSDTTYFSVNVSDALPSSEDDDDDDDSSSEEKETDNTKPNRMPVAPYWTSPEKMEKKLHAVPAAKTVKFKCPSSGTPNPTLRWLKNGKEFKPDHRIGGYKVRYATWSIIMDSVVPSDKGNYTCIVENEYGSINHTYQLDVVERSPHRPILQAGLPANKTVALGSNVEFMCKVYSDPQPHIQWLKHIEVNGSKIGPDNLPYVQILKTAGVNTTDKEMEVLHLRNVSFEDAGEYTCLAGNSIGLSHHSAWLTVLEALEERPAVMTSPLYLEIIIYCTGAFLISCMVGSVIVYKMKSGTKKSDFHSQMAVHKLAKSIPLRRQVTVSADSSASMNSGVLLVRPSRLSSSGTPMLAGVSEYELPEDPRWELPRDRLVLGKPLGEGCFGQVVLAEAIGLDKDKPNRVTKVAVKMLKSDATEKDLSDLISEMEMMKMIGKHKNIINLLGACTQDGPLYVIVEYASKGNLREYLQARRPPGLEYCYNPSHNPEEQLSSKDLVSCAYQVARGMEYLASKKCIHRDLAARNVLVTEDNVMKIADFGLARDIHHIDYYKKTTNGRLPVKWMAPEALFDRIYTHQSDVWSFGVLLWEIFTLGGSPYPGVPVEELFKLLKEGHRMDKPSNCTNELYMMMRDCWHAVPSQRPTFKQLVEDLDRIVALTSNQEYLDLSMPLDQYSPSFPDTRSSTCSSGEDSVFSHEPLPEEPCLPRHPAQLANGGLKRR", "sequence (Q86Z14 whole entry, chain 2 of 2, further chain)": "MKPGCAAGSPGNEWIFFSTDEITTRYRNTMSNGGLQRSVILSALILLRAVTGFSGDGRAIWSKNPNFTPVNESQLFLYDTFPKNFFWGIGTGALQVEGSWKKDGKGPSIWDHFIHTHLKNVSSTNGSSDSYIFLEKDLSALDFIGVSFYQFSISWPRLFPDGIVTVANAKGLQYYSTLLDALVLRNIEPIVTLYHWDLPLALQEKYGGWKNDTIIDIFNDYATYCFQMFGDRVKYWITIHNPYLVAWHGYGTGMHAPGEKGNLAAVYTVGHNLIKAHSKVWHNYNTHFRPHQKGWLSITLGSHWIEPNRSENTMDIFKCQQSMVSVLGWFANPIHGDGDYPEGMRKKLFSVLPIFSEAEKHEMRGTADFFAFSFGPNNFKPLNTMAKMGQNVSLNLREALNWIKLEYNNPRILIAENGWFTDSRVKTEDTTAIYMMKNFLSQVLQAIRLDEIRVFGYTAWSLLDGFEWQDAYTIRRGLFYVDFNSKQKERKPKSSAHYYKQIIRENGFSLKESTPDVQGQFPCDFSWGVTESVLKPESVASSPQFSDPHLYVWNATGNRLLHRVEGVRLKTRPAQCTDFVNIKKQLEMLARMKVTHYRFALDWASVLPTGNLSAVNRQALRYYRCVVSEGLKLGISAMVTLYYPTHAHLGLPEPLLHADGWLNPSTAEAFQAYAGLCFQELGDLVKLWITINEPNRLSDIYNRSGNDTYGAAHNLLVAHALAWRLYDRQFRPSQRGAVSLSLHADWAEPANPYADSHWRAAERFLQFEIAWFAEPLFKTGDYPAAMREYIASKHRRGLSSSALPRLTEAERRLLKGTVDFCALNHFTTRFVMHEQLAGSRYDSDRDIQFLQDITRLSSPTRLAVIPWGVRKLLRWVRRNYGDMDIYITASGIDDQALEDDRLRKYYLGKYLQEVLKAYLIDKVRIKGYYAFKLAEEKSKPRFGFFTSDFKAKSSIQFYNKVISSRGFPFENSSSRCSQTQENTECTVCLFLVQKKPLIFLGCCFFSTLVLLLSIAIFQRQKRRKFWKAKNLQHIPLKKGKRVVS", "test": "cell-based or functional assay", "units": {"EC50": "pM", "Emax": "%"}, "values": [
      {"binder": "B1", "EC50": "> 100000", "Emax": 490}
    ]}
  ]
}
